# Reference: patent publication US20100305031A1 (Daiichi Sankyo, published 2010)
# Bridges are numbered along the chain shown (N, C = ends). Where no end group is shown, it is not given here.
# Target: human type recombinant neutral endopeptidase (hNEP, manufactured by R&D Systems, Inc., U.S.A.) (human, UniProt P08473 52-750)
# Experiment: cell-based or functional assay
# Chain of human type recombinant neutral endopeptidase (hNEP, manufactured by R&D Systems, Inc., U.S.A.) (P08473 52-750 limits assumed): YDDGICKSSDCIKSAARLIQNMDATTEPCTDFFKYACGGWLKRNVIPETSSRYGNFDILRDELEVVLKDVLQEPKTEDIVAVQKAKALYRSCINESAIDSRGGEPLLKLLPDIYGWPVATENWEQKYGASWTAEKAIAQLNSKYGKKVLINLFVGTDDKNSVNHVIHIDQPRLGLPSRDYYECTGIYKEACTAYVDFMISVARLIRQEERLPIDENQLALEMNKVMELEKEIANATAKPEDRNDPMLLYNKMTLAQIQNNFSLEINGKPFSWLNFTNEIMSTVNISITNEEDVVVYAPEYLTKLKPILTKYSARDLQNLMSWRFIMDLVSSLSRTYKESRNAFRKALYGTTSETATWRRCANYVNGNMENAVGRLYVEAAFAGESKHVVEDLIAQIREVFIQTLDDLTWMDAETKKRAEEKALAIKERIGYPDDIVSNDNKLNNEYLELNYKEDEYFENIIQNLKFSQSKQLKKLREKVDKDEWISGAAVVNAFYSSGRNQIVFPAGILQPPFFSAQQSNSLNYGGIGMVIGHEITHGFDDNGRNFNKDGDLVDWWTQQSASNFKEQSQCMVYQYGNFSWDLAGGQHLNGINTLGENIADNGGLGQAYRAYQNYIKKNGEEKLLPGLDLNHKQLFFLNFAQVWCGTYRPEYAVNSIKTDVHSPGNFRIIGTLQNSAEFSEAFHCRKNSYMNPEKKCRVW
row,Binder,Residual Rate (%) of the unchanged peptide after 1 hour at 37° C. with hNEP (HPLC) [%]
1,CFGLKLDRIGSMSGLGCVQQRKESKKPPAKLQPR (disulfide 1-17 (inferred)) [Chimeric CNP (B)],83.8
2,RPQLKAPPKKSEKRQQVCFGLKLDRIGSMSGLGC (disulfide 18-34 (inferred)) [Chimeric CNP (A)],84.3
3,GLSKGCFGLKLDRIGSMSGLGC (disulfide 6-22) [Native CNP-22],16.7
